Like-named read-outs stand apart in the source and are kept apart here.
Tests used:
[1] = target: human C1q (Quidel, San Diego, CA) (human) (UniProt P02745); experiment: C1q binding ELISA (antibody coated, 2 µg/ml C1q added)
[2] = target: human C1q (Quidel, San Diego, CA) (human) (UniProt P02745); experiment: as above; remark: listed apart in the source
[3] = target: FcγRIIa α subunit ECD-6His-GST fusion protein (UniProt P12318); experiment: ELISA on coated receptor ECD-6His-GST, E27:chimeric IgE:VEGF immune complex
Chain of FcγRIIa α subunit ECD-6His-GST fusion protein (P12318 34-217): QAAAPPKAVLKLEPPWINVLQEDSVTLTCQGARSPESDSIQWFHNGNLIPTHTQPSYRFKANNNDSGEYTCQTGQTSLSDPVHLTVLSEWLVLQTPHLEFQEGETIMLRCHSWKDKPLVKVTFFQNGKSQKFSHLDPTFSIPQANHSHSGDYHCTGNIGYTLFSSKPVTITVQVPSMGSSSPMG

[4] = target: FcγRIIb α subunit ECD-6His-GST fusion protein (UniProt P31994); experiment: as above
Chain of FcγRIIb α subunit ECD-6His-GST fusion protein (P31994 43-217): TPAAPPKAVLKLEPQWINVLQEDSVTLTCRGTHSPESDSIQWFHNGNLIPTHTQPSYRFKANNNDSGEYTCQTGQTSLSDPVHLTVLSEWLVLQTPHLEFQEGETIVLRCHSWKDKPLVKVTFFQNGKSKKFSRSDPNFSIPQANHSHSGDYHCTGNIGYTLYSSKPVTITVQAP

[5] = target: human C1q (Quidel, San Diego, CA) (human) (UniProt P02745); experiment: cell-based or functional assay
[6] = target: FcγRI α subunit-GST fusion (UniProt P12314); experiment: ELISA on coated FcγRI α subunit-GST, monomeric IgG at 10 µg/ml
Chain of FcγRI α subunit-GST fusion (P12314 16-292): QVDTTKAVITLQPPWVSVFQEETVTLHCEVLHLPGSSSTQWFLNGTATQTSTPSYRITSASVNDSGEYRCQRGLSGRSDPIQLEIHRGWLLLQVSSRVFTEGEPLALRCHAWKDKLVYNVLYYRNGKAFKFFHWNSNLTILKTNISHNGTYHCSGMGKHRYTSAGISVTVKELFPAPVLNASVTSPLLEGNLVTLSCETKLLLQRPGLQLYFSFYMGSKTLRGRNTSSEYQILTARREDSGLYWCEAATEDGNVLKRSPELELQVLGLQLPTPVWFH

[7] = target: FcγRIIIa α subunit ECD-6His-GST fusion protein (UniProt P08637); experiment: ELISA on coated receptor ECD-6His-GST, E27:chimeric IgE:VEGF immune complex
Chain of FcγRIIIa α subunit ECD-6His-GST fusion protein (P08637 17-208): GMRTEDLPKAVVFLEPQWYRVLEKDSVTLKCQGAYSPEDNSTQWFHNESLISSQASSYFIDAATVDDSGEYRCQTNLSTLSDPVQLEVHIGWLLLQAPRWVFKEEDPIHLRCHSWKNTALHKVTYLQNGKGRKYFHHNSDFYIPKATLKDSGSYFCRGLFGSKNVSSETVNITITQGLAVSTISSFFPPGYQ

[8] = target: CD20 antigen on WIL2-S cells (UniProt P11836); experiment: flow cytometry on WIL2-S cells expressing CD20
Chain of CD20 antigen on WIL2-S cells (P11836 whole entry): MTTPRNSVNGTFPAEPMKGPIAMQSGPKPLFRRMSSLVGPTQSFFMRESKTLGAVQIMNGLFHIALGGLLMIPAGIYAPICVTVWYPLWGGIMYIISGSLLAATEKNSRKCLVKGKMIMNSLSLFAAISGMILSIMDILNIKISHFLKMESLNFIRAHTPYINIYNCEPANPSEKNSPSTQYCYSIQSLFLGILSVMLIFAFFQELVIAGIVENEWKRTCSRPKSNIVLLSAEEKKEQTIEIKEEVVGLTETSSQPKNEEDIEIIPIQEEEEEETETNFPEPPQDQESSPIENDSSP

[9] = target: human C1q (Quidel, San Diego, CA) (human) (UniProt P02745); experiment: C1q binding ELISA (antibody coated up to 100 µg/ml, 2 µg/ml C1q added)

Chain of human C1q (Quidel, San Diego, CA) (human) (P02745 23-245 limits assumed, chain 1 of 3): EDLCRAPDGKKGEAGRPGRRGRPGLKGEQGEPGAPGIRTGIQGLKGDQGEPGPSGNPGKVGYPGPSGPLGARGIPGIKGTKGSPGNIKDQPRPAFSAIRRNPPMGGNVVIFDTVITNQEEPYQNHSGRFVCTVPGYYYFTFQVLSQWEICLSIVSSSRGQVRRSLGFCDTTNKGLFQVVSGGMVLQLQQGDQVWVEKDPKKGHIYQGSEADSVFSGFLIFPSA
Chain of human C1q (Quidel, San Diego, CA) (human) (P02746 28-253 limits assumed, chain 2 of 3, further chain): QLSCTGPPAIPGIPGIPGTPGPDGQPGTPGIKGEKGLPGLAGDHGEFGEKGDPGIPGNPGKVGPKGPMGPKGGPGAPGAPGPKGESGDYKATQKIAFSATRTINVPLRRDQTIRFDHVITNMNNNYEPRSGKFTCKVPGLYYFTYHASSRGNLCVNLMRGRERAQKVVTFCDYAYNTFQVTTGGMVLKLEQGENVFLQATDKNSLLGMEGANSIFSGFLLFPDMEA
Chain of human C1q (Quidel, San Diego, CA) (human) (P02747 29-245 limits assumed, chain 3 of 3, further chain): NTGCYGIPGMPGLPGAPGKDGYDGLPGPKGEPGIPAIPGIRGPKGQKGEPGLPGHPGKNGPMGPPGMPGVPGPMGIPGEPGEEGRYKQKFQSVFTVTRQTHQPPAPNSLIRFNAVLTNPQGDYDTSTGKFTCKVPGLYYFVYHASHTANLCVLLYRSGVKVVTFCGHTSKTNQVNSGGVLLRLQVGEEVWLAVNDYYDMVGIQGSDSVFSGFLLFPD

C2B8 mutant K326W (antibody)
EC50 [1]: 0.47 µg/mL | fold increase in binding to C1q compared to wild type [1]: 5 fold | fold increase in binding to C1q compared to wild type [2]: 2 fold

C2B8 mutant with A327 of the human IgG1 constant region changed to glycine (antibody)
increase in C1q binding [1]: 50%

E27 anti-IgE antibody mutant K322A
binding, percentage of the wild type (% of wild type) [3]: 109 | binding, percentage of the wild type (% of wild type) [4]: 101

C2B8 mutant E333G (antibody)
EC50 [1]: 1.14 µg/mL

C2B8 mutant K326V (antibody)
EC50 [1]: 1.3 µg/mL

C2B8 double mutant K326A-E333A (antibody)
CDC compared to wild type C2B8 [5]: 2 fold | fold better at binding human C1q than wild type C2B8 [1]: 3 fold

C2B8 mutant E333S (antibody)
EC50 [1]: 0.81 µg/mL | fold increase in binding to C1q compared to wild type [1]: 2 fold

E27 anti-IgE antibody mutant E318A
binding, percentage of the wild type (% of wild type) [6]: 93 | binding, percentage of the wild type (% of wild type) [7]: 104 | binding, percentage of the wild type (% of wild type) [3]: 113 | binding, percentage of the wild type (% of wild type) [4]: 106

C2B8 mutant K326A (antibody)
EC50 [1]: 1.03 µg/mL | increase in binding to C1q [1]: 30%

C2B8 mutant K326E (antibody)
EC50 [1]: 1.08 µg/mL | fold increase in binding to C1q compared to wild type [2]: 2 fold

C2B8 mutant P331A (antibody)
CD20 binding (EC50), percentage of the wild type (% of wild type) [8]: 103 | fold lower than wild type C2B8 in binding to C1q [9]: 60 fold

C2B8 double mutant K326M-E333S (antibody)
CDC compared to wild type C2B8 [5]: 2 fold | fold better at binding human C1q than wild type C2B8 [1]: 3 fold

C2B8 mutant P329A (antibody)
CD20 binding (EC50), percentage of the wild type (% of wild type) [8]: 112

C2B8 mutant K326D (antibody)
EC50 [1]: 0.76 µg/mL | fold increase in binding to C1q compared to wild type [2]: 2 fold

E27 anti-IgE antibody mutant P331A
binding, percentage of the wild type (% of wild type) [6]: 74 | binding, percentage of the wild type (% of wild type) [7]: 73 | binding, percentage of the wild type (% of wild type) [3]: 86 | binding, percentage of the wild type (% of wild type) [4]: 58

C2B8 mutant E333Q (antibody)
EC50 [1]: 1.52 µg/mL

C2B8 mutant K326M (antibody)
EC50 [1]: 0.67 µg/mL | fold increase in binding to C1q compared to wild type [2]: 2 fold

C2B8 mutant E333D (antibody)
EC50 [1]: 1.22 µg/mL

C2B8 mutant K326G (antibody)
EC50 [1]: 0.95 µg/mL

C2B8 mutant E333A (antibody)
EC50 [1]: 0.98 µg/mL | increase in binding to C1q [1]: 30%

C2B8 mutant K334A (antibody)
EC50 [1]: 1.07 µg/mL

C2B8 mutant K320A (antibody)
CDC (% of wild type) [5]: 108 | CD20 binding (EC50), percentage of the wild type (% of wild type) [8]: 102

E27 anti-IgE antibody mutant P329A
binding, percentage of the wild type (% of wild type) [6]: 104 | binding, percentage of the wild type (% of wild type) [7]: 85

C2B8 mutant E318A (antibody)
CDC (% of wild type) [5]: 108 | CD20 binding (EC50), percentage of the wild type (% of wild type) [8]: 89 | decrease in binding to C1q compared to wild type C2B8 [1]: 30%

C2B8 mutant E333V (antibody)
EC50 [1]: 1.18 µg/mL

C2B8 double mutant K326W-E333S (antibody)
CDC compared to wild type C2B8 [5]: 3 fold

E27 anti-IgE antibody mutant K320A
binding, percentage of the wild type (% of wild type) [6]: 102 | binding, percentage of the wild type (% of wild type) [7]: 72 | binding, percentage of the wild type (% of wild type) [4]: 83
